Consider two molecules from PMC8693978.

Assay [1] has as its target EGFP-ARHGAP4 Rho-GAP deletion mutant (human). Nature of the assay: co-IP.
In assay [2] the target is EGFP-ARHGAP4 SH3 deletion mutant (human). Nature of the assay: co-IP.

B1: SEPT9 (natural protein)
chain: MKKSYSGGTRTSSGRLRRLGDSSGPALKRSFEVEEVETPNSTPPRRVQTPLLRATVASSTQKFQDLGVKNSEPSARHVDSLSQRSPKASLRRVELSGPKAAEPVSRRTELSIDISSKQVENAGAIGPSRFGLKRAEVLGHKTPEPAPRRTEITIVKPQESAHRRMEPPASKVPEVPTAPATDAAPKRVEIQMPKPAEAPTAPSPAQTLENSEPAPVSQLQSRLEPKPQPPVAEATPRSQEATEAAPSCVGDMADTPRDAGLKQAPASRNEKAPVDFGYVGIDSILEQMRRKAMKQGFEFNIMVVGQSGLGKSTLINTLFKSKISRKSVQPTSEERIPKTIEIKSITHDIEEKGVRMKLTVIDTPGFGDHINNENCWQPIMKFINDQYEKYLQEEVNINRKKRIPDTRVHCCLYFIPATGHSLRPLDIEFMKRLSKVVNIVPVIAKADTLTLEERVHFKQRITADLLSNGIDVYPQKEFDEDSEDRLVNEKFREMIPFAVVGSDHEYQVNGKRILGRKTKWGTIEVENTTHCEFAYLRDLLIRTHMQNIKDITSSIHFEAYRVKRLNEGSSAMANGMEEKEPEAPEM
Consider B1, for which the percent of the co-precipitation by full-length ARHGAP4 in assay [1] worked out at 55%; in assay [2] it was 65%.

B2: SEPT2 (natural protein)
chain: MSKQQPTQFINPETPGYVGFANLPNQVHRKSVKKGFEFTLMVVGESGLGKSTLINSLFLTDLYPERVIPGAAEKIERTVQIEASTVEIEERGVKLRLTVVDTPGYGDAINCRDCFKTIISYIDEQFERYLHDESGLNRRHIIDNRVHCCFYFISPFGHGLKPLDVAFMKAIHNKVNIVPVIAKADTLTLKERERLKKRILDEIEEHNIKIYHLPDAESDEDEDFKEQTRLLKASIPFSVVGSNQLIEAKGKKVRGRLYPWGVVEVENPEHNDFLKLRTMLITHMQDLQEVTQDLHYENFRSERLKRGGRKVENEDMNKDQILLEKEAELRRMQEMIARMQAQMQMQMQGGDGDGGALGHHV
Take B2: the percent of the co-precipitation by full-length ARHGAP4 in assay [1] stood at 55%; in assay [2], 65%.
